Measurements taken from patent US20240218057A1 (ROCKEFELLER UNIVERSITY, published 2024).

B1: C854 (antibody, V domains shown)
VH: EVQLVESGGGLIQPGGSLRLSCAASGITVSSNYMNWVRQAPGKGLEWVSVLYAGGSTFYADSVKGRFTISRDDSKNTLYLQMDSLRAEDTAVYYCARDLSSSGGFDYWGQGTLVTVSS
VL: EIVLTQSPGTLSLSPGERATLSCRASQSVSSSYLAWYQQKPGQAPRLLIYGASSRATGIPDRFSGRGSGTDFTLTISRLEPEDFAVYYCQQYGSLYTFGQGTKLEIK
notes: IgG; V domains only
B2: C850 (antibody, V domains shown)
VH: QVQLQESGPGLVKPSETLSLICSVSGVSVSSRNFFWSWIRQPPGKGLEWIGYMSYGGNTNYNPSLKSRVTISIDTSKNQFSLKLSSVTAADTAVYYCARETYYYDRSGYYSSDGFDYWGQGILVTVSS
VL: EIVLTQSPGTLSLSPGERATLSCRASQSITSSSLAWYQQKRGQPPRLLIYGASSRATGIPDRFSGSGSGTDLTLTISRLEPEDFAVYYCQQYGNSPYTFGQGTKLEIK
notes: IgG; V domains only
B3: C839 (antibody, V domains shown)
VH: QVQLQESGPGLVKPLDTLSLTCTVSGASISSYYWSWIRQPAGKGLEWIGLIYSSGSTTYNPSLKSRVTMSVDTSKKQFSLNLSSMTAADTAVYYCARGSALNWKSIGYFDSWGQGTLVTV
VL: DIQMTQSPSSLSASIRDRVTITCQASQDISNYLNWYQQKAGEAPKLLIYDASSLETGVPSRFSGSGSGTEFTLTISSLQPEDIATYYCQQYDHVPLTFGGGTKVEIK
notes: IgG; V domains only
B4: C848 (antibody, V domains shown)
VH: QVQLQESGPGLVKPSQTLSLTCTVSGGSISSGDYYWSWIRQPPGKGLEWIGYIYYTGITYYRPSLKSRVTISVDTSKNQFSLKLSSVTAADTAVFYCARVVRLWPRYFDSWGQGTLVTVSS
VL: QSALTQPPSASGSPGQSVTISCTGTSSDVGTYDYVSWYQQHPGKAPKVIIYEVTKRPSGVPDRFSGSKSGNTASLTVSGLQAEDEAHYYCSTYAGSDNLEFGGGTKLTVL
notes: IgG; V domains only
B5: C842 (antibody, V domains shown)
VH: QVQLVESGGGVVQPGRSLRLSCAASGFTFSTYAIHWVRQAPGKGLEWVAAISYDGSNKYYSDSVKGRLFISRDNSNNTVYLQMNNLRAEDTAIYYCARDGTIVTLVRGVMGPPFDYWGQGTLVTVSS
VL: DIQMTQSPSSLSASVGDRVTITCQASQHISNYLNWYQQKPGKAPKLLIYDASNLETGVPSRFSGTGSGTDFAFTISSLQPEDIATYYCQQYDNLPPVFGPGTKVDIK
notes: IgG; V domains only
B6: C857 (antibody, V domains shown)
VH: QVQLQESGPGLVKPSQTLSLTCTVSGGSISSGGYYWSWIRQHPGKGLEWIGYIYYSGSTYYNPSLESRVTISVDTSKNQFSLKLSSVTAADTAVYYCASGELSAFGELFPHDYWGQGTLVTVSS
VL: EIVLTQSPATLSLSPGERATLSCRASQSVSTYLAWYQQKPGQAPRLLIYDASNRATGIPARFSGSGSGTDFTLTISSLEPEDFAVYYCQQRSNWLFTFGPGTKVDIK
notes: IgG; V domains only
B7: C845 (antibody, V domains shown)
VH: QVQLQESGPGLVKPSQTLSLTCTVSGASISSGEYYWSWVRQPPGKGLEWVGYIYYSGSTYYNPSLKSRVTISVDTSKNHFSLKLKSLTAADTAVYFCATGGLSAFGELFPHDKWGQGTLVTVSS
VL: EIVLTQSPATLSLSPGERATLSCRASQSVGSDLAWYQQKPGQAPRLLIYDTSNRATGIPARFSGSGSGTDFTLTISSLDPADFAVYYCQQRTNWLFSFGPGTKVDIK
notes: IgG; V domains only
B8: C840 (antibody, V domains shown)
VH: QVQLVESGGGVVQPGRSLRLSCEASGFTFTAYAMHWLRQAPGKGLEWVAVILNDGSNKLYADSVKGRFTVSRDNSKNMLYLQVNSLRVDDTAVYYCARDGSVDTLMVTWFDYWGQGTLVTVSS
VL: DIQMTQSPSSLSASVGDRVTITCRASQSVNNYLNWYQQKPGQAPKLLIYAASSLQSGVPLRFSGSGSGTDFALTITSLHTEDFATYYCQQSYNTPPWTFGPGTKVEIK
notes: IgG; V domains only
B9: C847 (antibody, V domains shown)
VH: QVQLVESGGGVVQPGGSLRLSCGASGFTFSSYAMHWVRQAPGEGLEWVAVILYDGAGKFYADSVKGRFTISRDNSKNTLYLQMNSLRAEDTAVYYCARDYGDYVTHFDYWGQGALVTVSS
VL: DIQMTQSPSSLSASVGDRVTITCRASQSISSYLNWYQQKPGKAPKLLIYTASSLQSGVPSRFSGSGSGTDFTLTITSLQPEDFATYYCQQSYNTPPWTFGQGTKVEIK
notes: IgG; V domains only
B10: C855 (antibody, V domains shown)
VH: QVQLVESGGGVVQPGRSLRLSCAASGFAFSTYGMHWVRQTPGKGLAWVAAISYDGRNTYYGDSVKGRFTITRDNSKNTLYLQLNSLRDEDTALYYCARDATMITLVRGIMGPPFDHWGQGSLVTVSS
VL: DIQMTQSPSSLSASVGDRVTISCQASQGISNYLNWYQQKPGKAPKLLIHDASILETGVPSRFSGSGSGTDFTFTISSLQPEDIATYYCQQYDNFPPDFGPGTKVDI
notes: IgG; V domains only
B11: C859 (antibody, V domains shown)
VH: QVQLVQSGAELKKPGASVRVSCKASGYTFTDYYIHWVRQAPGQGFEWMGWINPDSGGTNYPQNFQGRVTMTRGTSISTAYVELTRLRFDDTAVYYCARTSSPHSSSTGDLDYWGQGTLVTVS
VL: SYELTQSPSVSVAPGKTARITCGGRDIGSKSVHWYQQRPGQAPVLVISYDNDRPSGIPERFSGSNSGNTATLTISRVEAGDEADYYCQVWDGTGDHPGWVFGGGTRLTVL
notes: IgG; V domains only
B12: C849 (antibody, V domains shown)
VH: QVQLVQSGAEVKKPGASVKVSCRASGYTFTDHYIHWVRQAPGQGLEWMGWINPNSGDTNYPQKFQGRVTMARDTSISTAHMELRRLKSDDTAVYYCARTSSPHSSSTGDFDSWGQGTLVTVSS
VL: SYELTQPPSVSVAPGKTARITCGGDDIGSKSVHWYQQKSGQAPVLVIHDDSDRPSGIPERFSGSNSGNTATLTISRVEAGDEADYYCQVWDFTGDHPGWVFGGGTKLTVL
notes: IgG; V domains only
B13: C851 (antibody, V domains shown)
VH: QLQLQESGPGLVKTSETLSLTCTVSGGSISSGNSYWGWIRQPPGKGLEWIGDIYYSGSTFYNPSLKSRLTISVDTSKNQFSLKLTSVTAADTAVYYCARRGGRTPVRFNYGGDVWGQGTTVTVSS
VL: DIQMTQSPSSLSASVGDRVTITCQASQDISRYLNWFQHKPGKAPKLLIYDASNLEAGVPSRFTGSGSGTEFTFTISSLQPEDFAIYFCQQYDSLPLTFGGGTKVEI
notes: IgG; V domains only
B14: C863 (antibody, V domains shown)
VH: EVQLLESGGGLVRPGGSLRLSCAASGFIFGSYAMTWVRQAPGKGLEWVSTISGGGTSTDYADSVKGHFTISRDNGKNTLYLQMNSLRAEDTAVYYCVKESDYYMASVNGMDVWGHGTTVTVSS
VL: EIVLTQSPGTLSLSPGERATLSCRARQGVSSTYLAWYQQKPGQAPRLLIYGASSRATGIPDRFSGSGSGADFTLTISRLEPEDFAVYYCQQYGTSPYTFGQGTKLEIK
notes: IgG; V domains only
B15: C844 (antibody, V domains shown)
VH: EVQLVESGGGLVKPGGSLRLSCVATGFSFSDAWMNWVRQAPGKGLEWVGRIRSEIADGTTDYAAPVKGRFTISRDDARNTLYLQMNSLEIEDTAVYYCTTGVVVVVSSSPDDAFDVWGQGTMVTVSS
VL: DIQMTQSPSSLSASVGDRVTITCRASQSIGHYLNWYQQKPGKAPKLLIYAASSLQSGVPSRFSGSGSGAGFTLTVNGLQPEDLATYYCQQYYTTPPTFGQGTKVEIK
notes: IgG; V domains only
B16: C856 (antibody, V domains shown)
VH: QVQLVESGGGVVQPGRSLRLSCAASGFTFSSYGMHWVRQAPGKGLEWVAVISYDGSNKYYADSVKGRFTISRDNSKNTLYLQMSSLRAEDTAVYYCAKQIGEYCSGGSCYQGSLDYWGQGTLVTVSS
VL: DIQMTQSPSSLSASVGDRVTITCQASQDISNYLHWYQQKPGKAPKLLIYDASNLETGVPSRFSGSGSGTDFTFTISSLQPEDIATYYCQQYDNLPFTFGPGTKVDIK
notes: IgG; V domains only
B17: C843 (antibody, V domains shown)
VH: QVQLVESGGGVVQPGRSLRLSCAASGFTFSRYAMHWVRQAPGKGLEWVAVISYDGSNKYYATSLKGRCTISRDNSKNTLYLQMNSLRAEDTAVYFCAKQIGEYCSGGNCYQGSLDYWGQGTLVTVSS
VL: DIQMTQSPSSLSASVGDRVTITCQASQDISNYLNWYQQKPGKAPKLLIYDASDLETGVPSTFSGSGSGTDFTLTISSLQPEDFATYYCQQYDIVPFTFGPGTKVDIK
notes: IgG; V domains only
B18: C853 (antibody, V domains shown)
VH: QVQLQESGPGLVKASQTLSLTCTVSGGSFRSGGYYYNWIRQHPGKGLEWIGYIFYTGVTYYNPSLKSRVSISVDTSKNQLSLNLTSVTAADTAVYYCARGSYSDYNGGWDYWGRGTLVTVS
VL: QSALTQPPSASGSPGQSVTISCIGTSSDVGGYNYVSWYQHHPGKAPKLIIYEVSKRPSGVPDRFSGSKSGNTASLTVSGLQADDEADYYCSSYAGSNNWVFGGGTKLTV
notes: IgG; V domains only
B19: C860 (antibody, V domains shown)
VH: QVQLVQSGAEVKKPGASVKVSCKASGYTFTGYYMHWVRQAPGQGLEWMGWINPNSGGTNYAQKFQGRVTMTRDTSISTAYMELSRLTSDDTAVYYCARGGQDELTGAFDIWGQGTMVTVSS
VL: SYELTQPPSVSVAPGKTARITCGGNSIGSKSVHWYQQKPGQAPVLVIYYDSDRPSGIPERFSGSNSGNTATLTISRVEAGDEADFHCQVWDSGWVFGGGTKLTVL
notes: IgG; V domains only
B20: C852 (antibody, V domains shown)
VH: QVQLVQSGAEVKKPGASVKVSCKASGYIFTGFYMHWVRQAPGQGPEWMGWINPNSGGTNYAQKFQGRVTMTRDTSISTAYMELSRLRSDDTALYYCARGGQDELTGTFDVWGQGTMVTVSS
VL: SYELTQPPSVSLAPGKTASITCGGDSIGSKSVHWYQQRPGQAPILVIYYDGDRPSGIPERFSGSNSGNTATLTISRVEAGDEADYYCQVWDGGWVFGGGTKLTVL
notes: IgG; V domains only
B21: C846 (antibody, V domains shown)
VH: QVQLVESGGGVFQPGRSLRLSCAASGFNFRTYAMHWVRQAPGKGLEWVAVILDDGSGKFYADSVKGRFTVSRDNSKHTLYLQMTSLSAEDTAIYFCARDQGTATTYFDHWGQGTLVTVSS
VL: DIQMTQSPSSLSASVGDRVTITCRASQSIRTFLSWYQQKAGKAPKLLIYTASSLQNGVPSRFSGSGSGTDFTLTISSLQPEDFATYYCQQSYETPPWTFGQGTKVEIK
notes: IgG; V domains only
B22: C841 (antibody, V domains shown)
VH: EVQLVESGGGLVQPGGSLRLSCAASGFTFSIFSMNWVRQAPGKGLEWISYISSSSGSRHYADSVKGRFTISRDNAKNSLYLQMNNLRDEDTAMYYCAREAHDGALTGYGDYLNWFDPWGQGVLVTVSS
VL: SYELTQPPSVSVAPGKTARIPCGGDSVGSKSVHWYQQKSGQAPVLVIHSDSDRPSGIPERFSGSNSGNTATLTITGVAAGDEADYYCHVWDTIGDRFYWVFGGGTKLTVL
notes: IgG; V domains only
B23: C864 (antibody, V domains shown)
VH: QVQLVQSGPEVKKPGTSVKVSCKAFQLSFSVSAVQWVRQARGQRLEWIGWIVVGSGNTNYAQKFQERVTITRDMSTSTVYMEVRSLRSEDTAVYYCAAPQCNRTTCYDAFDMWGQGTMVTVSS
VL: EIVLTQSPGTLSLSPGERATLSCRASQSVNSNYLAWYQQKPGQAPRLLIFGPSNRATGIPDRFSGSGSGTDFTLTISRLESEDFAVYYCQQYGSSPWTFGQGTKVEIK
notes: IgG; V domains only

biological target: T1, SARS-COV-2 RBD (SARS-COV-2, UniProt P0DTC2 319-539); experiment: ELISA, RBD coated
T1 construct: also called WT RBD

B1 and B2 are within 1.5-fold of each other in EC50: 2.57 ng/mL for the first, 3.7 ng/mL for the second.

Compared with B3, B4 is 2-fold lower in EC50: 4.38 ng/mL for the first, 2.23 ng/mL for the second.

B5 and B6 are within 1.5-fold of each other in EC50: 3.01 ng/mL for the first, 2.01 ng/mL for the second.

B7 and B8 are within 1.5-fold of each other in EC50: 1.5 ng/mL for the first, 1.36 ng/mL for the second.

B9 and B10 are within 1.5-fold of each other in EC50: 3.06 ng/mL for the first, 2.73 ng/mL for the second.

B11 and B12 are within 1.5-fold of each other in EC50: 2.75 ng/mL for the first, 3.64 ng/mL for the second.

B13 and B14 are within 1.5-fold of each other in EC50: 2.83 ng/mL for the first, 3.31 ng/mL for the second.

Going from B15 to B16, the EC50 rises from 1.53 ng/mL to 2.65 ng/mL (1.7-fold).

B17 and B18 are within 1.5-fold of each other in EC50: 2.4 ng/mL for the first, 2.3 ng/mL for the second.

Compared with B19, B20 is 1.8-fold higher in EC50: 2.61 ng/mL for the first, 4.59 ng/mL for the second.

B21 and B22 are within 1.5-fold of each other in EC50: 3.48 ng/mL for the first, 3.15 ng/mL for the second.

For B23, the EC50 was 1.89 ng/mL.
